Experimental data from paper PMC9663308 (2022).
Ends that are not written are not given here.

Columns and labels:
[1] = molecular target: T1, ClpA (laboratory 'wild-type' ClpA carrying M169T), hexamer (E. coli, UniProt P0ABH9 1-758, M169T); test: FP; equimolar ClpA6 + ClpS titrated against N-degron peptide
[2] = molecular target: T2, ClpA D1 pore-2 loop variant QTQ (AAS 295–297 to QTQ), hexamer (E. coli, UniProt P0ABH9 1-758, M169T | 295–297 AAS to QTQ); test: as above
T2 sequence: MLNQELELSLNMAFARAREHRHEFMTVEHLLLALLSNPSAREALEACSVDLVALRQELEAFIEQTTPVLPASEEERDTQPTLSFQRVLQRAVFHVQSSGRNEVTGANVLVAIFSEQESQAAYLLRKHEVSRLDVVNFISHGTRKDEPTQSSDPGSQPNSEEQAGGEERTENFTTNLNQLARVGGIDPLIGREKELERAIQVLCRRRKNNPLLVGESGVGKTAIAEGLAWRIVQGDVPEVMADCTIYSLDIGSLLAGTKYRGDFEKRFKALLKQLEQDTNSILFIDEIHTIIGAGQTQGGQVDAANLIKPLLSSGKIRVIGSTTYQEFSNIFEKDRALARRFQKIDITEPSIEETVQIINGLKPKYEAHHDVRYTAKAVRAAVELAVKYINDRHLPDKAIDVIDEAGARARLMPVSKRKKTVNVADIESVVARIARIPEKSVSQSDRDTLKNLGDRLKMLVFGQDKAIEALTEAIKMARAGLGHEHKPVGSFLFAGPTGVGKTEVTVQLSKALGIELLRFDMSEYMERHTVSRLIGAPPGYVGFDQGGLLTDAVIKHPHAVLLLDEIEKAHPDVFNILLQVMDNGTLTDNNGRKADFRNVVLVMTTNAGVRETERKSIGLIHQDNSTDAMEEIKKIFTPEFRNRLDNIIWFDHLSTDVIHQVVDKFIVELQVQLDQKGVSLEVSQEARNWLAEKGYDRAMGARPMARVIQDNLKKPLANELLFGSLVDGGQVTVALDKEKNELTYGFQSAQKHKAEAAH

[3] = molecular target: T3, ClpA D1 pore-2 loop variant Δ295–297, hexamer (E. coli, UniProt P0ABH9 1-758, M169T | Δ295–297); test: as above
T3 sequence: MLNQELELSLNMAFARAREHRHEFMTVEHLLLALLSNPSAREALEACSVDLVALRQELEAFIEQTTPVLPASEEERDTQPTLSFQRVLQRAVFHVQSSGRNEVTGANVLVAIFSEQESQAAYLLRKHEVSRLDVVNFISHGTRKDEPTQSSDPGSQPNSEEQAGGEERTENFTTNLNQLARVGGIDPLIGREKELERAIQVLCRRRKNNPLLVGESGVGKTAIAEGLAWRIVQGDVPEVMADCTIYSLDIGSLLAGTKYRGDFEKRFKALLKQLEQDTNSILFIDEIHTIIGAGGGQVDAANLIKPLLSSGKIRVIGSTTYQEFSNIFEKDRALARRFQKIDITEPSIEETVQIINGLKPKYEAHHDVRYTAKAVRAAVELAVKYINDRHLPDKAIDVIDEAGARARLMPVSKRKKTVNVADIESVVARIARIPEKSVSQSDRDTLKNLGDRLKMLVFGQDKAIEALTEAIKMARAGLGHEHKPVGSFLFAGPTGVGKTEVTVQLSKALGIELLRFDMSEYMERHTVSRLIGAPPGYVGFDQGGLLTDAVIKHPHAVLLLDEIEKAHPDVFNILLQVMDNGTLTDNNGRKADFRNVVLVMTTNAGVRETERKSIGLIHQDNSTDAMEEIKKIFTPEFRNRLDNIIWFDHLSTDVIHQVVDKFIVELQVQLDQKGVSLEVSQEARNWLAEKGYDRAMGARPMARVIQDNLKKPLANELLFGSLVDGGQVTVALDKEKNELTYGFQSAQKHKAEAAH

[4] = molecular target: T4, ClpA D1 pore-2 loop variant GGG (AAS 295–297 to GGG), hexamer (E. coli, UniProt P0ABH9 1-758, M169T | 295–297 AAS to GGG); test: as above
T4 sequence: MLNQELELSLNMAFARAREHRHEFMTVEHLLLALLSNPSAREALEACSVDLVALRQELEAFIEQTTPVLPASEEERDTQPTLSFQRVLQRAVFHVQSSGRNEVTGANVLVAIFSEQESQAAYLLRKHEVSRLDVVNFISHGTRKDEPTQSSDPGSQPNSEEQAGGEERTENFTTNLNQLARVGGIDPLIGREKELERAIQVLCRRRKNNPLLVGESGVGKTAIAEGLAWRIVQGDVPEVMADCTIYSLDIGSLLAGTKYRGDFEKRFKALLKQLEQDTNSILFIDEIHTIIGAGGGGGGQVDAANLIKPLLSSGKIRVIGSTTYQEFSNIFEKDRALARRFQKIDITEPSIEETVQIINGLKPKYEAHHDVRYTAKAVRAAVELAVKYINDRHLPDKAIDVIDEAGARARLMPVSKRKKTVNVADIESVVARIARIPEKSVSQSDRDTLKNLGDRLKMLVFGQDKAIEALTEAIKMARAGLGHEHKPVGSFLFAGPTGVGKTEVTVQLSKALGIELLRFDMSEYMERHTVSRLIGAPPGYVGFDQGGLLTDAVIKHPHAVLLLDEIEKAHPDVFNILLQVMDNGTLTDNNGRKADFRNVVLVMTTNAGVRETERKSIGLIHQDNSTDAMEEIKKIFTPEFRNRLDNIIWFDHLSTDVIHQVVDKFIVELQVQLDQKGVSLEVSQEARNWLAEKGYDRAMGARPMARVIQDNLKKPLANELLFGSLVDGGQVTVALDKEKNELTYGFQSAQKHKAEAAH

[5] = molecular target: T5, ClpA D1 pore-2 loop variant KYR (AAS 295–297 to KYR), hexamer (E. coli, UniProt P0ABH9 1-758, M169T | 295–297 AAS to KYR); test: as above
T5 sequence: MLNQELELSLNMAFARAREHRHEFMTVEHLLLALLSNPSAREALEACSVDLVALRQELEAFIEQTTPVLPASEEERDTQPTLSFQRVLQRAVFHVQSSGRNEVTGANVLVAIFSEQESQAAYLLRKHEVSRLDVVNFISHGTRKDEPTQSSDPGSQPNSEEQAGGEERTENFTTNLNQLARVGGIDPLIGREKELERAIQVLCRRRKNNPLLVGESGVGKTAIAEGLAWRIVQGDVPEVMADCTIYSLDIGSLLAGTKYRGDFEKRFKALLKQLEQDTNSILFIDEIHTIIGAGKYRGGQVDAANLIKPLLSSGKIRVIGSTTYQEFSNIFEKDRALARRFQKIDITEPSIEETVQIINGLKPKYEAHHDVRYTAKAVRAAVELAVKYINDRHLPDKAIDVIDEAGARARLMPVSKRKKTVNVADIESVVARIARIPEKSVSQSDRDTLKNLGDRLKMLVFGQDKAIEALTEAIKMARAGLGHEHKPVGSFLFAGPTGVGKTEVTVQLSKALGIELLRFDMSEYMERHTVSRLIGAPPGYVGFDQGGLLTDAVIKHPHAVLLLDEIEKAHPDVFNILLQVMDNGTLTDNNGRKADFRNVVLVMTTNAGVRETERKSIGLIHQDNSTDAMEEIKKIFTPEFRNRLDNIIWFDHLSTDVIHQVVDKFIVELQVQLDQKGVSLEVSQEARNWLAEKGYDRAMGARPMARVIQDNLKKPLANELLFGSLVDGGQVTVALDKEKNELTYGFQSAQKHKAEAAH

[6] = molecular target: T1, ClpA (laboratory 'wild-type' ClpA …); test: FP
[7] = molecular target: T2, ClpA D1 pore-2 loop variant QTQ (AAS …); test: FP
[8] = molecular target: T3, ClpA D1 pore-2 loop variant Δ295–297, …; test: FP
ClpS adaptor = molecular target: T6, ClpS adaptor (E. coli, UniProt P0A8Q6 1-106); test: FP
T6 chain: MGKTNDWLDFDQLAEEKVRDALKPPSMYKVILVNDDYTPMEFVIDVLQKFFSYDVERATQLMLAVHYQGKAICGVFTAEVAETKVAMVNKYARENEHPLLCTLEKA

[9] = molecular target: T4, ClpA D1 pore-2 loop variant GGG (AAS …); test: FP
[10] = molecular target: T5, ClpA D1 pore-2 loop variant KYR (AAS …); test: FP

B1: ClpS•N-degron peptide complex (ClpS with LLYVQRDSKEC-fluorescein) (complex)
chain 1: MGKTNDWLDFDQLAEEKVRDALKPPSMYKVILVNDDYTPMEFVIDVLQKFFSYDVERATQLMLAVHYQGKAICGVFTAEVAETKVAMVNKYARENEHPLLCTLEKA
chain 2: LLYVQRDSKEC
modifications: fluorescein (printed as LLYVQRDSKEC-fluorescein)
- Kd [1]: 56 nM
- Kd [2]: 65 nM
- Kd [3]: 44 nM
- Kd [4]: 41 nM
- Kd [5]: 73 nM

Binder: LLYVQRDSKEC-fluorescein (not fully specified (residue 11); printed as LLYVQRDSKEC-fluorescein) [LLYVQRDSKEC-fluorescein N-degron synthetic peptide]
- Kd [6]: 1200 nM
- Kd [7]: 900 nM
- Kd [8]: 1200 nM
- Kd (ClpS adaptor): 2600 nM
- Kd [9]: 670 nM
- Kd [10]: 550 nM
